# How the values were obtained:
# [1] = test system: Peripheral blood mononuclear cells (PBMC); assay: Cytokine induction in an in vitro human blood cell system (IFN-α and TNF-α secreted into culture media); format: cell-based; settings: 18 to 24 hours; for Minimum Effective Concentration (µM) IFN-α: lowest tested concentration inducing IFN-α over fixed level (usually 20 pg/mL); for Minimum Effective Concentration (µM) TNF: lowest tested concentration inducing TNF-α over fixed level (usually 40 pg/mL)
# Source text: An in vitro human blood cell system is used to assess cytokine induction. Activity is based on the measurement of interferon (α) and tumor necrosis factor (α) (IFN-α and TNF-α, respectively) secreted into culture media as described by Testerman et. al. in “Cytokine Induction by the Immunomodulators Imiquimod and S-27609,” Journal of Leukocyte Biology, 58, 365-372 (September, 1995).
# Whole blood from healthy human donors is collected by venipuncture into vacutainer tubes or syringes containing EDTA. Peripheral blood mononuclear cells (PBMC) are separated from whole blood by density gradient centrifugation using HISTOPAQUE-1077 (Sigma, St. Louis, Mo.) or Ficoll-Paque Plus (Amersham Biosciences Piscataway, N.J.). Blood is diluted 1:1 with Dulbecco's Phosphate Buffered Saline (DPBS) or Hank's Balanced Salts Solution (HBSS). Alternately, whole blood is placed in Accuspin (Sigma) or LeucoSep (Greiner Bio-One, Inc., Longwood, Fla.) centrifuge frit tubes containing density gradient medium. The PBMC layer is collected and washed twice with DPBS or HBSS and re-suspended at 4×10^6 cells/mL in RPMI complete. The PBMC suspension is added to 96 well flat bottom sterile tissue culture plates containing an equal volume of RPMI complete media containing test compound.
# The compounds are solubilized in dimethyl sulfoxide (DMSO). The DMSO concentration should not exceed a final concentration of 1% for addition to the culture wells. The compounds are generally tested at concentrations ranging from 30-0.014 μM. Controls include cell samples with media only, cell samples with DMSO only (no compound), and cell samples with reference compound. […]
# Following incubation the plates are centrifuged for 10 minutes at 1000 rpm (approximately 200×g) at 4° C. […] The samples are analyzed for IFN-α by ELISA and for TNF-α by IGEN/BioVeris Assay.
# IFN-α concentration is determined with a human multi-subtype calorimetric sandwich ELISA (Catalog Number 41105) from PBL Biomedical Laboratories, Piscataway, N.J. Results are expressed in pg/mL.
# The TNF-α concentration is determined by ORIGEN M-Series Immunoassay and read on an IGEN M-8 analyzer from BioVeris Corporation, formerly known as IGEN International, Gaithersburg, Md. […]
# Analysis of the data has two steps. First, the greater of the mean DMSO (DMSO control wells) or the experimental background (usually 20 pg/mL for IFN-α and 40 pg/mL for TNF-α) is subtracted from each reading. If any negative values result from background subtraction, the reading is reported as
# “*”, and is noted as not reliably detectable. […] The adjustment ratio is the area of the reference compound in the new experiment divided by the expected area of the reference compound based on the past 61 experiments (unadjusted readings). […]
# [2] = Solubility in normal saline and phosphate buffered saline (saturated solutions, 25° C., 7 days, HPLC); format: physicochemical; settings: for Solubility Fold Increase: Example 6 over IRM2; for solubility at 7 days: thermodynamic from solid
# Description: The solubility of IRM2 and the IRM-polymer complex exemplified in Example 6 was determined in normal saline and phosphate buffered saline (PBS) at pH 7.4. Each compound was added to each medium until saturation had been reached. Vials containing the saturated solutions were capped and placed into a shaking water bath at 25° C. After 7 days the saturated solutions were filtered and analyzed for compound content on an HPLC using a Zorbax Bonus-RP 150×4.6 mm 5 μm particle size column. IRM2 was eluted with a 25:75 ratio of 0.05% trifuoro-acetic acid (TFA) in Acetonitrile to 0.1% TFA in water. Example 6 was eluted with a 10:90 ratio of 0.05% TFA in Acetonitrile to 0.1% TFA in water for three minutes, gradient to a 75:25 ratio of 0.05% TFA in Acetonitrile to 0.1% TFA in water for seven minutes and held at the 75:25 ratio for eight minutes. All HPLC runs were set at a flow rate of 1 mL/min, 20 μL injection volume, and a 254 nm UV detection wavelength. Quantitation was performed against external standards. Results are shown in Table 5 expressed in millimolar (mM) and solubility fold increase of Example 6 over IRM2.
# [3] = Liberation of IRM1 from IRM-polymer complex in buffered saline at 37° C., measured by HPLC; format: physicochemical; settings: 0.1 mg/ml
# Description: Samples were placed in a thermostated autosampler with the temperature controlled at 37° C. Samples were injected periodically over the course of the experiment and the % of IRM1 liberated was measured by an HPLC system equipped with a thermostatted autosampler set at 37° C. and a Zorbax SB C18, (3.0×150 mm), 3.5 μm particle size column with a column temperature of 40° C. Samples were eluted with a mobile phase of 1% acetic acid in water and methanol. The mobile phase was run at a ratio of 55:45 of 1% acetic acid in water to methanol for five minutes, gradient to 5:95 for ten minutes, held at 5:95 for five minutes, gradient to 55:45 in less than a minute, and held at 55:45 for ten minutes. All HPLC runs were set at a flow rate of 0.5 mL/min, 20 μL injection volume, and a 254 nm UV detection wavelength. The % IRM1 was determined by normalizing the IRM1 peak area by the total peak area of the chromatogram.
# [4] = normal saline, saline or isotonic, Saline, 25° C.
compound,measurement,setting,value
CCCCc1nc2c(N)nc3ccccc3c2n1CCCCNC(=O)CCOCCOCCOCCOCCOCCOCCOCCOCCOCCOCCOCCOCCOCCOCCOCCOCCOCCOCCOCCOCCOCCOCCOCCOCCOCCOCCOCCOCCOCCOCCOCCOCCOCCOCCOCCOCCOCCOCCOCCOCCOCCOCCOCCOCCOCCOC [Example 6],Minimum Effective Concentration (µM) IFN-α,[1],30 µM
same,Minimum Effective Concentration (µM) TNF,[1],> 30 µM
same,Solubility Fold Increase,"[2]; Phosphate Buffered Saline, pH 7.4",75.97
same,Solubility Fold Increase,[2]; Saline,142.50
same,solubility at 7 days,"[2]; aqueous buffer, Phosphate Buffered Saline, pH 7.4, 25° C.",5590 µM
same,solubility at 7 days,[2]; [4],5970 µM
CCOCc1nc2c(NC(=O)CCOCCOCCOCCOCCOCCOCCOCCOCCOCCOCCOCCOCCOCCOCCOCCOCCOCCOCCOCCOCCOCCOCCOCCOCCOCCOCCOCCOCCOCCOCCOCCOCCOCCOCCOCCOCCOCCOCCOCCOCCOCCOCCOCCOCCOCCOC)nc3ccccc3c2n1CC(C)(C)O [Example 7],Minimum Effective Concentration (µM) IFN-α,[1],3.33 µM
same,Minimum Effective Concentration (µM) TNF,[1],30 µM
same,% IRM1,"[3]; Citrate Buffered Saline, pH 4, 37° C., time 0 hr",2.9%
same,% IRM1,"[3]; Citrate Buffered Saline, pH 4, 37° C., time 6 hr",5.7%
same,% IRM1,"[3]; Citrate Buffered Saline, pH 4, 37° C., time 10 hr",7.4%
same,% IRM1,"[3]; Citrate Buffered Saline, pH 4, 37° C., time 13 hr",9.4%
same,% IRM1,"[3]; Citrate Buffered Saline, pH 4, 37° C., time 17 hr",10.6%
same,% IRM1,"[3]; Citrate Buffered Saline, pH 4, 37° C., time 20 hr",12.1%
same,% IRM1,"[3]; Citrate Buffered Saline, pH 4, 37° C., time 23 hr",13.0%
same,% IRM1,"[3]; Citrate Buffered Saline, pH 4, 37° C., time 28 hr",16.5%
same,% IRM1,"[3]; Citrate Buffered Saline, pH 4, 37° C., time 30 hr",17.1%
same,% IRM1,"[3]; Phosphate Buffered Saline, pH 7.4, 37° C., time 1 hr",1.3%
same,% IRM1,"[3]; Phosphate Buffered Saline, pH 7.4, 37° C., time 5 hr",1.5%
same,% IRM1,"[3]; Phosphate Buffered Saline, pH 7.4, 37° C., time 10 hr",1.7%
same,% IRM1,"[3]; Phosphate Buffered Saline, pH 7.4, 37° C., time 13 hr",1.8%
same,% IRM1,"[3]; Phosphate Buffered Saline, pH 7.4, 37° C., time 18 hr",1.9%
same,% IRM1,"[3]; Phosphate Buffered Saline, pH 7.4, 37° C., time 20 hr",2.1%
same,% IRM1,"[3]; Phosphate Buffered Saline, pH 7.4, 37° C., time 23 hr",2.1%
same,% IRM1,"[3]; Phosphate Buffered Saline, pH 7.4, 37° C., time 27 hr",2.3%
same,% IRM1,"[3]; Phosphate Buffered Saline, pH 7.4, 37° C., time 30 hr",2.4%
"CCCCc1nc2c(N)nc3ccccc3c2n1CCCCNC(C)=O [IRM 2, N-[4-(4-Amino-2-butyl-1H-imidazo[4,5-c]quinolin-1-yl)butyl]acetamide, reference compound]",solubility at 7 days,[2]; [4],40 µM
same,solubility at 7 days,"[2]; phosphate buffered saline (PBS), aqueous buffer, Phosphate Buffered Saline, pH 7.4, 25° C.",70 µM
